B1: LINE1-full (parent)
chain: UACGUAGGUGGUUUUCCCCUGAUAGUGCUAAGGGGGCCUGGAAGUUUGGACUGGGCAGAGCUCAACACAGCGUGGCAAAGUGGCUGUGGCUAGACUGCCUCUCUGGAUUCCUCGUCACUCAGCAGGGCAUCUCUGAGAGAAAUGCC

Variants of: B1
Experiment: self-cleavage, relative activity (ratio to wild type); higher = more cleavage; in vitro, sequencing; the parent is a self-cleaving ribozyme

| Variant | self-cleavage |
| --- | --- |
| A59U G114A | 0.54 |
| C63A U73A | 0.06 |
| A64G A79G | 0.24 |
| U62C U143C | 0.06 |
| U62C U143A | 0.06 |
| C63U A141G | 0.36 |
| C61U A107G | 0.03 |
| U62C U115A | 0.04 |
| U62C U115C | 0.1 |
| A64G C113U | 0.13 |
| A64G C113A | 0.17 |
| U62C A64C | 0 |
| U62C A64U | 0.05 |
| U62C C103A | 0.04 |
| U62A A92U | 0.03 |
| U62A A92G | 0.07 |
| U62C C95U | 0.03 |
| U62C A121G | 0.1 |
| U62C A121U | 0.04 |
| U62C G83U | 0.03 |
| U62C G74A | 0.04 |
| G60U A121G | 0 |
| A59U A65G | 0.03 |
| A64G C76U | 0.13 |

| Variant | self-cleavage |
| --- | --- |
| C61U A65C | 0.03 |
| U62C U102A | 0.04 |
| G60A A67G | 0.08 |
| A59U U62A | 0.05 |
| A59U U62C | 0.06 |
| A59U U62G | 0.04 |
| U62A A65C | 0.07 |
| G60C U109C | 0.1 |
| A64G A121G | 0.28 |
| A64G C118U | 0.29 |
| U62C C90U | 0.05 |
| U62C C146U | 0.03 |
| A64C C145U | 0.4 |
| G60A A142G | 0.04 |
| C61U A77U | 0.03 |
| C61U | 0.04 |
| C61G | 0.06 |
| C61A | 0.04 |
| C61U U100A | 0.01 |
| U62G U108C | 0.07 |
| A59U C63A | 0.02 |
| G60A A136G | 0.02 |
| C63U U100G | 0.35 |
| C63U U100C | 0.99 |

| Variant | self-cleavage |
| --- | --- |
| C63U U112C | 0.29 |
| U62A U130A | 0.03 |
| U62C U73G | 0.06 |
| U62C U73A | 0.03 |
| A64G A138U | 0.27 |
| C63U A129G | 0.3 |
| U62A A78G | 0.05 |
| C61U U112G | 0.04 |
| U62C G70U | 0 |
| A64C U134C | 0.61 |
| U62C A141U | 0.03 |
| U62A U143C | 0.05 |
| U62A U143G | 0.08 |
| U62C G137A | 0.17 |
| C61U U73A | 0.02 |
| C61U U73G | 0.16 |
| U62C A65U | 0.01 |
| U62C U132A | 0.05 |
| C61U G114U | 0.01 |
| C61U A141G | 0.05 |
| A64G G144A | 0.21 |
| C63A A65G | 0.02 |
| G60A U62C | 0.04 |
| A59U G127A | 0.65 |

| Variant | self-cleavage |
| --- | --- |
| U62C G93U | 0.03 |
| C61G A67U | 0.04 |
| G60A U81C | 0.03 |
| G60A U81A | 0.02 |
| G60A A69G | 0.05 |
| G60A A69U | 0.03 |
| G60U U62C | 0.08 |
| A64G A92G | 0.14 |
| C61U U62G | 0.01 |
| U62A A117C | 0.05 |
| U62A A117G | 0.08 |
| C61A A140G | 0.05 |
| A64C A69U | 0.05 |
| A64G A117G | 0.21 |
| C63A A129U | 0.06 |
| C63A A129G | 0.09 |
| U62C C123U | 0.01 |
| U62C C123G | 0.07 |
| G60C U102C | 0.06 |
| U62A C84U | 0.04 |
| A64G G106U | 0.15 |
| C63A U130C | 0.05 |
| G60A A78U | 0.02 |
| G60A A78G | 0.04 |

| Variant | self-cleavage |
| --- | --- |
| U62A U104C | 0.1 |
| U62A U104A | 0.04 |
| A64C U115A | 0.38 |
| A64C U115C | 0.47 |
| G60U U91C | 0.01 |
| A64C U81G | 0.3 |
| A64C U81A | 0.44 |
| U62C G114A | 0.05 |
| U62A G86A | 0.05 |
| C63A A140G | 0 |
| U62A U81C | 0.04 |
| U62A U81A | 0.05 |
| U62A A121U | 0.06 |
| U62A U119A | 0.04 |
| A64C U143C | 0.35 |
| U62A A69U | 0.05 |
| U62A A69G | 0.02 |
| C63A A79G | 0.12 |
| U62C C76U | 0.07 |
| A59U A142C | 1.03 |
| A59U A142G | 1.08 |
| A64C C95A | 0.01 |
| G60A G72A | 0.01 |
| U62A A136U | 0.14 |

| Variant | self-cleavage |
| --- | --- |
| U62A A136G | 0.03 |
| C63U A107G | 0.45 |
| A64G G127U | 0.21 |
| A64G G127A | 0.18 |
| U62C C111A | 0.02 |
| U62C A124U | 0.05 |
| U62C G97C | 0.06 |
| G60U U100A | 0.02 |
| A64G C99U | 0.18 |
| U62A A79U | 0.03 |
| C61U G106A | 0.02 |
| C63A U104C | 0.07 |
| U62C U91G | 0 |
| U62C U96C | 0.06 |
| U62C U130C | 0.06 |
| A64G G86A | 0.08 |
| A64C C101U | 0.28 |
| A59U U81C | 0.87 |
| A59U U81A | 1.53 |
| G60A A65U | 0.05 |
| C61A A129U | 0.03 |
| A59U A79G | 0.83 |
| C63U U119G | 0.37 |
| U62C U87A | 0.04 |

| Variant | self-cleavage |
| --- | --- |
| U62C U87C | 0.05 |
| C63U U91G | 0.04 |
| C63U U91C | 0.18 |
| G60U U85C | 0.03 |
| U62A C128U | 0.03 |
| A64C A67G | 0.04 |
| U62C A129G | 0.06 |
| U62C A129U | 0.01 |
| C63U A79G | 0.58 |
| U62C U104A | 0.05 |
| U62C U104C | 0.07 |
| A64C U108C | 0.39 |
| U62A U73C | 0.02 |
| U62C A94C | 0.07 |
| U62C A94G | 0.11 |
| C61G A77G | 0.07 |
| U62C A107U | 0.06 |
| A59U U134C | 0.92 |
| C61U U81A | 0.02 |
| A64G A67U | 0.11 |
| A64G A67G | 0.09 |
| U62C G88U | 0.04 |
| U62G A138G | 0.09 |

Reference: the RNAGym collection of RNA variant scans (doi:10.7554/elife.90254)
